Assay: soluble fraction after stress (log2 fold change); higher = more stays soluble; pooled small domains, quantitative proteomics
Settings: stress: 50 degC
Summary of the method: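 Quantitative proteomics served as the high-throughput read-out for pooled custom libraries of small protein domains. Each was stressed at 50°C. Aggregation propensity is expressed as the base-two log fold change in soluble protein after stress. A higher value means a larger share of the protein remains in solution.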

| Sequence | soluble fraction (log2) |
| --- | --- |
| HMDAEETLGARLRRLRQARGLSLAGLAQAAGLSKPSIWAWENGTTAPRRTSLLALARALDVPEQQLTGV | -0.358 |
| HMDAEKHIVTPEAGLRLDRALTDALPNLSRSRVKQLINEGLVTTENKTITAPSYRVKYGDSFEISIPPPT | -0.0636 |
| HMDAIIVPSVLKMKPFEAEEKLSALGLRMKINDTVYIDNMKPGVIVEQSPTAEEDVKTDRVIYVIVNA | -0.404 |
| HMDAKQLQSLKNNNEQLAGFIVRLTNFYEGLSPDIDAELSKLRSHLSGKVDYTLATVSINKINQLFMLEP | -2.6 |
| HMDALIWYVSRGQQKFGPFNYFGVLKALQDKSVFEFDYVWKEGTENWVRLAEHELFSQEKVRELLA | -0.203 |
| HMDAMLGEALRLIRVYHDLKQKQAAERLEVSTSYLSEIERGLKTPTLDIIQRYATVFDMPVSSIMFFSENL | -3.03 |
| HMDAMLSEQLREKRGELLIEVDAIAGNALRWATLSAEQQDAWAVYRQALLDVPQQAGFPNDVVWPINPN | -0.352 |
| HMDAPKPDIGMSTDQIRSSLGQPGSQTRLETGGGRIYELWIYLYPDGKELQIYFDNAKVVKMEALS | -0.613 |
| HMDAPLIIAETRVDVPDATVSDAVMMLDLRNTNALLFKNSGSGVLNMVYRRGDGTIGWGEPQ | -0.0172 |
| HMDASKVKIEDLGLSTRTENALVAASIRTAGGLARKSEMDLLSTDGLGEKGITEIKKALSDLGLELK | 0.285 |
| HMDAVSTMIENLRVKTGKSLADWVGLAKGSGADKHGAMVGWLKSEHGLTHGYANLIAHETFRSAA | 0.0392 |
| HMDAVTPVLSRIRDARFKRMVLPGDEIEISVTLIDTIGKFFNLSGQIRNKDKISLTVNFALALV | -0.0104 |
| HMDDADPYEILGVERDAEDAEIKRAYHDLIRENHPDRLMAEGLPQEMIDVANEKVAFINDAYDRIEKLRGM | -0.241 |
| HMDDENKIEVMINEEKVQLTGKDKYVFVDIFNYIDMDLTRIHGNLVLKLNGENASHNSLLKSGDKIEARWE | -0.181 |
| HMDDERDRLVQQAMEGLSPALREILLLAYFQRMPYNQIAESLRIPLGTVKSRLHAAVAAFAKRWQELNRS | -0.693 |
| HMDDFNLSPREKDVLGHLVKGNSYKMIADELQIGYDTVHSHIKKIYKKLHVNSMSEAVAKALKNKL | 0.543 |
| HMDDGARQLVDQLNRLIANPAVSARIIHGYLILEGRVESEWEKTRTLLLAQVAGLPVIDLITVS | -1.85 |
| HMDDGLTRLTPRENEVLELMAQGRSNTAIAERLVLSYGAVEKNVSSIFTKLDLPLDAGDHRRVLAVLRRLN | -0.688 |
| HMDDGNHTEYIVLEKAKFYDEAGEYEEGRDLVLSFDKYQDNWKLVYTLGVFNKKLNNLEEARKYYKQALE | -0.0519 |
| HMDDHKQHLIDFYHSRKRMPTYTEMMALFGYKSKNAVARLVEKMIDAGIVTKDKLGKLLPTTLFDSVPL | 0.0577 |
| HMDDHLRLSDNERISAMSALATHFTEGRLDTSEFDERTLAASQAKSRGDLRPLFDDLPGQLPAALSP | 0.0376 |
| HMDDKLKKLEEVFEMQEGTLTPDMRLDELEEWDSMTRLSLIVMMEDDYGKKVKRSEVMNYTTVQDIVDSME | -0.5 |
| HMDDLSPEENKVIGAQVREELARRRLSRQHLADKAKISLSTLEKALTGTRPFTLASVVRIEEALQLQLRK | -0.484 |

| Sequence | soluble fraction (log2) |
| --- | --- |
| HMDDPEISQEQRQQLFRTAKEHFGASGNDVLKEILADHGRDSTVKMPVSVFAEIMGDLLKRALD | 0.432 |
| HMDDPQAELLARAVRRVALAAAERTRRNEYGGVYLGLFRQFGISSYRRTPPARLHEALEWLERWRGDLM | -0.0675 |
| HMDDTVILPIQINGKRRAEISVPKAMPASEVEKLALANEDVLRFLAGQPIKKLIVVPGRIINVV | 0.179 |
| HMDDVGERIRKIREEKNLSLDEISKMTGFDVEFLAKIENKERQPQLGTVIKLSKALDSAFGRL | 0.221 |
| HMDDVGYLRKRLQQALAQLSDDLRNTYTLFQIGKQSIKQIAAETGASESLVKVRIHRAKQKLQELLADLQ | -0.987 |
| HMDEDLQEALRKLNPIQANERKLLLKMLEQHRWNVSSVAKAFDVSRNTLYRRLHKLHIPLSNPSE | -0.417 |
| HMDEEAIELTQEVMKLPPKQREVILLYYYHGLTGKEIAKALGISGAAVSKRLKQAKNQLHFALK | -0.0921 |
| HMDEEVLVVQEGGERLDVFVAANAEGITRSFVQNLIKKGDVTVDGAPRKANYRLRSGQVVRFSLPEP | -0.328 |
| HMDEFEEGVITYFNSEKGFGFIRESKTKQSVFVHSKQLSSPVQLNDKVKFIVNKGLKGLEATEVSVI | -0.235 |
| HMDEFQLTPREQEILGLLVKGYTYKRIASELNLSYATVNRHVSNVYVKLRVHSVNEAVALAVRKGL | -0.997 |
| HMDEKLAHKLVSDFRQAAASLERFPFRNPVLRSEVFTVEKYRKLVFDKYHILLYQVKDQVVYVEYVIDGRQ | -0.75 |
| HMDEKVTIPSVSGLLLSEAKTKLVDAGLTVETVYDDESKEAKDTVLSQSPLQYGKVDKGTVVTLTVSSGKG | -0.043 |
| HMDELPKDILRSFGLPDKPWAMELLRNLRRDGFALDGETARAYAEMAAMKPPRTDARQWMTAADVAYRRG | -0.151 |
| HMDEMPVEFVKISIKAGHPWENRKIKDLASLPDLLLVLILRGEERIIPNGNTVVLAGDKIVLSALSPE | -0.936 |
| HMDENILKTRIEDLDLSVRTIKALTGASIRTVSGLARKKESDLLEISGLGDKGIQEIKRALGSLGITL | 0.0868 |
| HMDENTEQESQTVVVPDVTGKSLSEAASILREAGLDYLAEQTGTVVTKQMPLPDAEVLINTTVLLYTDSE | 0.0118 |
| HMDEPSITYGKVKVQTSLNVRQGPGTQYARIGSLGPNVRIQILGQEGQWYKIKYGNLQGYVHSDYVELEK | 0.0784 |
| HMDEQKNREIALIENIQREDLNPYEKALGIRNLMDKYGLTQEEVSKRIGKSRSAVSNTVRILNLAPDVL | 0.0391 |
| HMDEQLAWLYRKINAFSEIDKALILLYLEDKKYDEIAETLGISSVNARVKMNRIKKRLKEMINDR | -2.53 |
| HMDEQVETLKNLISELPKEQLEVLVMRHYEDLSFKEISEKTGVSINTALGRMRYALINIRKLMKENN | -0.223 |
| HMDESLIEEAKAMILQMKIEGSVRVRSNGLLEFRNPLFGSVYGRSVEELQEKLNKKVREQKSRI | -0.0459 |
| HMDEVPMPPEYQYLRVGSRVHHATFGWGKVTRLSQPWPQTRAEVFFENIGPKKLVLAHAHLTMD | -0.727 |
| HMDEYTAVDSRLDLELAMKRLKPEEAEVLRLVFDYGLPQRAIAERLGVSQMSVSRMQRRAIGKLKRWLSDN | -1.08 |

| Sequence | soluble fraction (log2) |
| --- | --- |
| HMDFKKKIIESWADIAETLRGLTVDSNISDWTTKQKNAYETLADKAELAGLSIADLNSILVELGYM | -0.0868 |
| HMDFNDPTMEKSLVELPAMSNSTLRDLSENNIKKLEELAEMSVGELMDIASKISESDASALIMEARKPWF | -0.137 |
| HMDFRVGVWVELVQQRRSVRTQLTWVSPQHTLFLFTAKDGSTQSMTLRMRDKLLAEGNLRIVAPPSR | -2.23 |
| HMDFSENEPVTVRVLSILKNNTIRIAVKGAVLQAQTALSQDIREGAFLLMRVHITDNTVVLTPY | 0.0533 |
| HMDFSNVNFSQVSDSELDLLMRRASAQGYTQFDLLKIARAQGLTQAEIEKLDKRFKSAETVAYVAENA | 0.0939 |
| HMDFTHFTLKQDGKFAGSSNLLHQAVIAAARLAAETGKPVTVMAHVRGGGTRKAVFNPDGTNDKIWN | -0.61 |
| HMDGAPVTVIKNGEVDVATTMRVGLSASELMFKLRAAGVDEVQIVHRAVLEQNGQLTIIKYGEE | 0.0259 |
| HMDGASVQRITELTATLNRYRHEYYNLAKPSVSDAVYDRLFDELAALEQKTGIVLSNSPTQTV | -0.247 |
| HMDGFVFVMPIKETRMFSVNDERPLVGIVKYSNGEFEKEQLIGFRPNSEYEFIIEGQRLYRVPVNSITIK | -0.886 |
| HMDGIRLYPGLMIEHKNFGRGQVVSVNRERGTFTAFFGKNGTRTLTIQILKTDTVRPLASQKAGK | 0.212 |
| HMDGKPSLIISNGQINYKEMVKLRYSLEDLLFQLRQNSIKSIEEVEYAFLESNGKLSIFPYNFL | -1.51 |
| HMDGLGLGAVILAQRKRQGWTQEDLAARIGVSKGAVSKWETGQSYPDLPLVPRLAALFHITVDELLDYR | -0.662 |
| HMDGLIRLNKLLATLGVESRRHAEEMIIAGRITVDGVTATEKGQKVRRGAVIKVDGVEVGPPP | -0.121 |
| HMDGQPQLLIKNGQLLVSTALKNGMSANDLMFRLRTEGITDIRYVKRAVLEQNGQLTITQVGDD | -0.105 |
| HMDGVTEYTVKSGDSFSAIINKHYNVNYDEKLMQAVAAYNNIEDMNKLQLGQIIKLPPKEQLNL | 0.0199 |
| HMDGYVPAERIASEVGVSARTITREMHGLEMTLMPYGIALLRRTGAGFMLAGTAKALADLRKHMTEDADTQ | -0.00161 |
| HMDHAHWEEHEVKLLLTLAIQEKEKFNWNQFGLTREGWRNIYPHFPQYSRKQINNKFDFLKQKYRAWKDS | -1.84 |
| HMDHAVINSEEVTIKDLSEKIGVSAAEIIKALFTEGIIKTINDKIEYEYAQYVAGMFGVELTLKL | 0.277 |
| HMDIANEQEQIFITAMRNDDFNPILELKMKGYQPSKNVLKSLQPDVSSTTFIAAAKIFQMEGVL | -0.144 |
| HMDIASNQIQGIKDSVGGDENYSKMVAWALESLPAEEVKAFNDLTETANAPAIKMAVQGLYSQYNNAM | 0.264 |
| HMDIDGVSENGRLILAALDKEALDFDTLAAETGIQESRLRTELTLLEIRKLIMKLPGQRYRLI | 0.0016 |
| HMDIDNDIIENILVMGVTKAIAINLSNEFERHRIIANIEYAKEKSKNSEIKNISAFTVEAIRQDYANS | -1.1 |
| HMDIEITIPPEAKELDVSKILISGNIITDEQEFLDYLKQNNVAAFKDGNYKLNKNMTTEEIVNQIK | 0.498 |

From the domain aggregation screens of Martell et al. (2025)
